From patent US20200031912A1 (published 2020)
Numbering of substitutions follows the chain as printed.

B1: ABD02 (SEQ ID NO: 4) (designed binder)
chain: GPSVFLFPPKPKDTLMISRTPEVTCVFVDYRADYLEVKFNWYVDGAEVHNAKTKPRQYDPLYGYRVVSVLTVLHQDWLNGKEYTCKVSNKALPAPIEKTISKDK
B2: ABD04 (SEQ ID NO: 6) (designed binder)
chain: B1 chain with L15M, N50H, L73S
B3: ABD01 (SEQ ID NO: 3) (designed binder)
chain: B1 chain with A46V
B4: ABD03 (SEQ ID NO: 5) (designed binder)
chain: B1 chain with N50H, L73S, E97Q
B5: ABD05 (SEQ ID NO: 7) (designed binder)
chain: B1 chain with N50H, L73S
B6: B11, a template CH2 domain molecule (SEQ ID NO: 12) (designed binder)
chain: B1 chain with F27V, A46V, T84K, D103A
B7: template (Macaque) CH2 domain molecule of SEQ ID NO: 2 (other)
chain: GPSVFLFPPKPKDTLMISRTPEVTCVVVDVSQEDPDVKFNWYVNGAEVHHAQTKPRETQYNSTYRVVSVLTVTHQDWLNGKEYTCKVSNKALPAPIQKTISKDK

biological target: human recombinant FcRn protein (human, UniProt P55899 24-297); test: Biacore
Sequence (P55899 24-297): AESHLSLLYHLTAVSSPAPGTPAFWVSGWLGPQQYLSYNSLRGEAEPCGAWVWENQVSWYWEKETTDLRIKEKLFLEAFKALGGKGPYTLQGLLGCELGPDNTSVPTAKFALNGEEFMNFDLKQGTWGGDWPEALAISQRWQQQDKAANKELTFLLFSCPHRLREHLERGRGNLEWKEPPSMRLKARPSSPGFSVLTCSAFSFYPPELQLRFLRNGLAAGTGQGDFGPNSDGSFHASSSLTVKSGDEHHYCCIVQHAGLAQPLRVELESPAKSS

Row | Binder | Kd
1 | B1 | 21 nM
2 | B2 | 8.9 nM
3 | B3 | 4.18 nM
4 | B4 | 11.4 nM
5 | B5 | 9.1 nM
6 | B6 | 12 nM
7 | B7 | 13 nM
